According to patent US20170266254A1 (AILERON THERAPEUTICS, published 2017):
Bridges are numbered along the chain shown (N, C = ends). [ ]: non-standard residue; d: D form. S5 = C=CCCC[C@](C)(N)C(=O)O; Nle = CCCC[C@H](N)C(=O)O

T1: C-terminally 6x Histidine-tagged Beta-Catenin (aa 134-668, 59 KD) (UniProt P35222 134-668)
T1 construct: range 134-668; Armadillo repeat region
T1 sequence: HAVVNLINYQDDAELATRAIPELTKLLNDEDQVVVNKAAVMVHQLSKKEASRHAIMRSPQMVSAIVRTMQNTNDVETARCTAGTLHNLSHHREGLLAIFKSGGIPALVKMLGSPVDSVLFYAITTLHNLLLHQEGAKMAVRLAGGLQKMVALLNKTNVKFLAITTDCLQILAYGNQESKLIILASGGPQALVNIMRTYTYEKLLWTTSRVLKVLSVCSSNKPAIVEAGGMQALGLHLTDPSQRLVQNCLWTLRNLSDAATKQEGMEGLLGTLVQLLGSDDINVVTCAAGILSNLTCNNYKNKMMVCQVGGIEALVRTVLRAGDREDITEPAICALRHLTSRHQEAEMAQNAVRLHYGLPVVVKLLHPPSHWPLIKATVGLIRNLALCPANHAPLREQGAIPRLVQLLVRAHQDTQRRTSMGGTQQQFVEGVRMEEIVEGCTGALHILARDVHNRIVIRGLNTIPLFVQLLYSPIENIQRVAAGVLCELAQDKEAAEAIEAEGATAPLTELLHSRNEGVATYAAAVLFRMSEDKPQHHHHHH

B1: SP34 (peptide)
peptide: Ac-RDLANVK[S5]S[Nle]V[S5]ES-NH2
modifications: staple 8-12
SMILES: CCCC[C@@H]1NC(=O)[C@H](CO)NC(=O)[C@@](C)(NC(=O)[C@H](CCCCN)NC(=O)[C@@H](NC(=O)[C@H](CC(N)=O)NC(=O)[C@H](C)NC(=O)[C@H](CC(C)C)NC(=O)[C@H](CC(=O)O)NC(=O)[C@H](CCCNC(=N)N)NC(C)=O)C(C)C)CCCC=CCCC[C@@](C)(C(=O)N[C@@H](CCC(=O)O)C(=O)N[C@@H](CO)C(N)=O)NC(=O)[C@H](C(C)C)NC1=O
notes: also called Ac-RDLANVK$SNleV$ES-NH2
B2: SP2 (peptide)
peptide: Ac-RDLADVK[S5]SLV[S5]ES-NH2
modifications: staple 8-12
SMILES: CC(=O)N[C@@H](CCCNC(=N)N)C(=O)N[C@@H](CC(=O)O)C(=O)N[C@@H](CC(C)C)C(=O)N[C@@H](C)C(=O)N[C@@H](CC(=O)O)C(=O)N[C@H](C(=O)N[C@@H](CCCCN)C(=O)N[C@@]1(C)CCCC=CCCC[C@@](C)(C(=O)N[C@@H](CCC(=O)O)C(=O)N[C@@H](CO)C(N)=O)NC(=O)[C@H](C(C)C)NC(=O)[C@H](CC(C)C)NC(=O)[C@H](CO)NC1=O)C(C)C
notes: also called Ac-RDLADVK$SLV$ES-NH2
B3: SP4 (peptide)
peptide: Ac-RNLADVK[S5]SLV[S5]ES-NH2
modifications: staple 8-12
SMILES: CC(=O)N[C@@H](CCCNC(=N)N)C(=O)N[C@@H](CC(N)=O)C(=O)N[C@@H](CC(C)C)C(=O)N[C@@H](C)C(=O)N[C@@H](CC(=O)O)C(=O)N[C@H](C(=O)N[C@@H](CCCCN)C(=O)N[C@@]1(C)CCCC=CCCC[C@@](C)(C(=O)N[C@@H](CCC(=O)O)C(=O)N[C@@H](CO)C(N)=O)NC(=O)[C@H](C(C)C)NC(=O)[C@H](CC(C)C)NC(=O)[C@H](CO)NC1=O)C(C)C
notes: also called Ac-RNLADVK$SLV$ES-NH2
B4: SP9 (peptide)
peptide: Ac-RDL[S5]NVK[S5]SLVNES-NH2
modifications: staple 4-8
SMILES: CC(=O)N[C@@H](CCCNC(=N)N)C(=O)N[C@@H](CC(=O)O)C(=O)N[C@@H](CC(C)C)C(=O)N[C@@]1(C)CCCC=CCCC[C@@](C)(C(=O)N[C@@H](CO)C(=O)N[C@@H](CC(C)C)C(=O)N[C@H](C(=O)N[C@@H](CC(N)=O)C(=O)N[C@@H](CCC(=O)O)C(=O)N[C@@H](CO)C(N)=O)C(C)C)NC(=O)[C@H](CCCCN)NC(=O)[C@H](C(C)C)NC(=O)[C@H](CC(N)=O)NC1=O
notes: also called Ac-RDL$NVK$SLVNES-NH2
B5: SP32 (peptide)
peptide: Ac-RDLANVI[S5]SLV[S5]ES-NH2
modifications: staple 8-12
SMILES: CC[C@H](C)[C@H](NC(=O)[C@@H](NC(=O)[C@H](CC(N)=O)NC(=O)[C@H](C)NC(=O)[C@H](CC(C)C)NC(=O)[C@H](CC(=O)O)NC(=O)[C@H](CCCNC(=N)N)NC(C)=O)C(C)C)C(=O)N[C@@]1(C)CCCC=CCCC[C@@](C)(C(=O)N[C@@H](CCC(=O)O)C(=O)N[C@@H](CO)C(N)=O)NC(=O)[C@H](C(C)C)NC(=O)[C@H](CC(C)C)NC(=O)[C@H](CO)NC1=O
notes: also called Ac-RDLANVI$SLV$ES-NH2
B6: SP33 (peptide)
peptide: Ac-RDLANVV[S5]SLV[S5]ES-NH2
modifications: staple 8-12
SMILES: CC(=O)N[C@@H](CCCNC(=N)N)C(=O)N[C@@H](CC(=O)O)C(=O)N[C@@H](CC(C)C)C(=O)N[C@@H](C)C(=O)N[C@@H](CC(N)=O)C(=O)N[C@H](C(=O)N[C@H](C(=O)N[C@@]1(C)CCCC=CCCC[C@@](C)(C(=O)N[C@@H](CCC(=O)O)C(=O)N[C@@H](CO)C(N)=O)NC(=O)[C@H](C(C)C)NC(=O)[C@H](CC(C)C)NC(=O)[C@H](CO)NC1=O)C(C)C)C(C)C
notes: also called Ac-RDLANVV$SLV$ES-NH2
B7: SP35 (peptide)
peptide: Ac-RGLANVK[S5]SLV[S5]ES-NH2
modifications: staple 8-12
SMILES: CC(=O)N[C@@H](CCCNC(=N)N)C(=O)NCC(=O)N[C@@H](CC(C)C)C(=O)N[C@@H](C)C(=O)N[C@@H](CC(N)=O)C(=O)N[C@H](C(=O)N[C@@H](CCCCN)C(=O)N[C@@]1(C)CCCC=CCCC[C@@](C)(C(=O)N[C@@H](CCC(=O)O)C(=O)N[C@@H](CO)C(N)=O)NC(=O)[C@H](C(C)C)NC(=O)[C@H](CC(C)C)NC(=O)[C@H](CO)NC1=O)C(C)C
notes: also called Ac-RGLANVK$SLV$ES-NH2
B8: SP10 (peptide)
peptide: Ac-SAERDL[S5]DVK[S5]SLVNESEKR-NH2
modifications: staple 7-11
SMILES: CC(=O)N[C@@H](CO)C(=O)N[C@@H](C)C(=O)N[C@@H](CCC(=O)O)C(=O)N[C@@H](CCCNC(=N)N)C(=O)N[C@@H](CC(=O)O)C(=O)N[C@@H](CC(C)C)C(=O)N[C@@]1(C)CCCC=CCCC[C@@](C)(C(=O)N[C@@H](CO)C(=O)N[C@@H](CC(C)C)C(=O)N[C@H](C(=O)N[C@@H](CC(N)=O)C(=O)N[C@@H](CCC(=O)O)C(=O)N[C@@H](CO)C(=O)N[C@@H](CCC(=O)O)C(=O)N[C@@H](CCCCN)C(=O)N[C@@H](CCCNC(=N)N)C(N)=O)C(C)C)NC(=O)[C@H](CCCCN)NC(=O)[C@H](C(C)C)NC(=O)[C@H](CC(=O)O)NC1=O
B9: SP12 (peptide)
peptide: Ac-SAERDLADVK[S5]SLV[S5]ESEKR-NH2
modifications: staple 11-15
SMILES: CC(=O)N[C@@H](CO)C(=O)N[C@@H](C)C(=O)N[C@@H](CCC(=O)O)C(=O)N[C@@H](CCCNC(=N)N)C(=O)N[C@@H](CC(=O)O)C(=O)N[C@@H](CC(C)C)C(=O)N[C@@H](C)C(=O)N[C@@H](CC(=O)O)C(=O)N[C@H](C(=O)N[C@@H](CCCCN)C(=O)N[C@@]1(C)CCCC=CCCC[C@@](C)(C(=O)N[C@@H](CCC(=O)O)C(=O)N[C@@H](CO)C(=O)N[C@@H](CCC(=O)O)C(=O)N[C@@H](CCCCN)C(=O)N[C@@H](CCCNC(=N)N)C(N)=O)NC(=O)[C@H](C(C)C)NC(=O)[C@H](CC(C)C)NC(=O)[C@H](CO)NC1=O)C(C)C
B10: SP22 (peptide)
peptide: Ac-SA[S5]RDL[S5]DVKSSLVNESEKR-NH2
modifications: staple 3-7
SMILES: CC(=O)N[C@@H](CO)C(=O)N[C@@H](C)C(=O)N[C@@]1(C)CCCC=CCCC[C@@](C)(C(=O)N[C@@H](CC(=O)O)C(=O)N[C@H](C(=O)N[C@@H](CCCCN)C(=O)N[C@@H](CO)C(=O)N[C@@H](CO)C(=O)N[C@@H](CC(C)C)C(=O)N[C@H](C(=O)N[C@@H](CC(N)=O)C(=O)N[C@@H](CCC(=O)O)C(=O)N[C@@H](CO)C(=O)N[C@@H](CCC(=O)O)C(=O)N[C@@H](CCCCN)C(=O)N[C@@H](CCCNC(=N)N)C(N)=O)C(C)C)C(C)C)NC(=O)[C@H](CC(C)C)NC(=O)[C@H](CC(=O)O)NC(=O)[C@H](CCCNC(=N)N)NC1=O
B11: SP11 (peptide)
peptide: Ac-SAERDLA[S5]VKS[S5]LVNESEKR-NH2
modifications: staple 8-12
SMILES: CC(=O)N[C@@H](CO)C(=O)N[C@@H](C)C(=O)N[C@@H](CCC(=O)O)C(=O)N[C@@H](CCCNC(=N)N)C(=O)N[C@@H](CC(=O)O)C(=O)N[C@@H](CC(C)C)C(=O)N[C@@H](C)C(=O)N[C@@]1(C)CCCC=CCCC[C@@](C)(C(=O)N[C@@H](CC(C)C)C(=O)N[C@H](C(=O)N[C@@H](CC(N)=O)C(=O)N[C@@H](CCC(=O)O)C(=O)N[C@@H](CO)C(=O)N[C@@H](CCC(=O)O)C(=O)N[C@@H](CCCCN)C(=O)N[C@@H](CCCNC(=N)N)C(N)=O)C(C)C)NC(=O)[C@H](CO)NC(=O)[C@H](CCCCN)NC(=O)[C@H](C(C)C)NC1=O
B12: SP13 (peptide)
peptide: Ac-SAERDLADVKS[S5]LVN[S5]SEKR-NH2
modifications: staple 12-16
SMILES: CC(=O)N[C@@H](CO)C(=O)N[C@@H](C)C(=O)N[C@@H](CCC(=O)O)C(=O)N[C@@H](CCCNC(=N)N)C(=O)N[C@@H](CC(=O)O)C(=O)N[C@@H](CC(C)C)C(=O)N[C@@H](C)C(=O)N[C@@H](CC(=O)O)C(=O)N[C@H](C(=O)N[C@@H](CCCCN)C(=O)N[C@@H](CO)C(=O)N[C@@]1(C)CCCC=CCCC[C@@](C)(C(=O)N[C@@H](CO)C(=O)N[C@@H](CCC(=O)O)C(=O)N[C@@H](CCCCN)C(=O)N[C@@H](CCCNC(=N)N)C(N)=O)NC(=O)[C@H](CC(N)=O)NC(=O)[C@H](C(C)C)NC(=O)[C@H](CC(C)C)NC1=O)C(C)C

The binders below were run against T1, C-terminally 6x Histidine-tagged … (assay: competitive fluorescence polarization, FAM-labelled linear probe as competitor, His-tagged beta-catenin 134-668).
Description: The following experiments are performed at room temperature unless otherwise noted. First, an assay buffer is prepared composed of 25 mM Tris-Hcl pH 7.5, 200 mM Sodium Chloride, and 5 mM CHAPS. Next, 1M DTT is added to assay buffer to a final concentration of 2 mM. […] Forty μl of this protein stock is added to all but six wells of a 96 well plate (which will serve as the free peptide and Blank). Test competitor peptides are diluted from 1 mM DMSO stocks to 2× working stocks in assay buffer. Further dilutions are made in assay buffer-DMSO as to maintain a constant DMSO concentration in all wells. The dilution is carried out such that the peptides have a working concentration range of 40 μM-0.7 μM (2×). As a benchmark, a linear, non-crosslinked peptide competitor is prepared as above but with a working concentration range of 13-0.7 μM. Fifty μl of the competitor 2× stocks are added to the 40 μl of protein solution previously transferred into the assay 96 well plate. Next, a 10× stock of the fluorescent probe is prepared. The probe is identical to the linear benchmark peptide except for the n-terminal conjugation of a FAM flourophore with Beta-Alanine spacer. A 1 mM DMSO stock of the probe is serially diluted to a final concentration of 25 nM (10×) and 10 μl of this stock is added to all wells except for those that will serve as the blank. The assay plate is stored in the dark and the reaction is allowed to run at room temperature for three hours. The reaction is then read on a Biotek Synergy 2 with the following settings: 100 ms delay, 40 measurements per well, with excitation filters of […], and emission filters of […]. Data is then analyzed in Graphpad Prism.

Row | Binder | IC50 [µM]
1 | B1 | ≥ 100
2 | B2 | ≥ 100
3 | B3 | ≥ 100
4 | B4 | ≥ 100
5 | B5 | ≥ 100
6 | B6 | ≥ 100
7 | B7 | ≥ 100
8 | B8 | ≥ 100
9 | B9 | 85
10 | B10 | ≥ 100
11 | B11 | ≥ 100
12 | B12 | ≥ 100
